Assay [1] has as its target LY1 ORF1 ΔC-term (1-609) (Betatorquevirus isolate LY1 (TTMV-LY1)). Nature of the assay: cryo-EM structure; Expi293-derived ΔC-term virus-like particles, 0.4 mg/ml, Titan Krios 300 kV, 2.69 Å.
In assay [2] the target is LY1 ΔARM fragment (ORF1 with residues 2-45 deleted, C-terminus removed by proteolysis in insect cells) (Betatorquevirus isolate LY1 (TTMV-LY1)). Nature of the assay: cryo-EM structure; Sf9-derived ΔARM fragment virus-like particles, 0.3 mg/ml on graphene oxide grid, Glacios 200 kV, I1 symmetry, 3.9 Å.

As a reminder, the stoichiometry N is a count of units in the complex or per binding partner. In assay [1], “LY1 ORF1 ΔC-term (1-609) (domain or fragment)” registered a stoichiometry N of 60.
Regarding “LY1 ΔARM fragment (ORF1 with residues 2-45 deleted, C-terminus removed by proteolysis in insect cells) (domain or fragment)”, in assay [2], the stoichiometry N was 60.

These data come from article PMC11341859.
